Assay results as given in the supplement of paper PMC12636428.

system: Saccharomyces cerevisiae; assay: transcriptional activation domain activity (GFP:mCherry ratio, weighted mean of sorted bins, harmonized to initial dataset scale) (arbitrary fluorescence ratio units); higher = stronger transcriptional activation; settings: beta-estradiol 1 µM; induction time 4 h
Procedure, shortened: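 Protein tiles carrying barcodes and fused to an estradiol-inducible synthetic transcription factor were placed at the URA3 locus of yeast diploids with a GFP reporter. Following 4 hours at 30 °C in SC with 1 uM beta-estradiol, cells were sorted into 8 GFP:mCherry bins, barcodes were sequenced, and tiles with fewer than 50 reads were discarded. Activation activity is given as the read-weighted mean of bin median fluorescence, averaged across barcodes and linearly mapped to the initial dataset scale.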

| Sequence | transcriptional activation domain activity |
| --- | --- |
| DTMIRLFVGWLEEDPSSDRVLPRVHLGEIGIPVKLDLSSPSAVLVVSRLLCSL | 74100 |
| NGFLLQVVRWNTRPHKEVVQLLTKYFTGAKHQRLLSENIGLIAEWTDRICQLG | 58900 |
| MDGSEANRPYHAKKPHRKSRSGCRNCKTRKVKCDESRPTCRACRLRREACAYP | 16600 |
| DRSRATEEEDGKSTKRSRARSRTFTFSKSDKGGDGSPSKKVRSTSKSRAKHDG | 31100 |
| LRWVRSNWRSNLTSLSELHMWWNYPWSLYAVFQTTITQWAFLLDCLLFACFYF | 33700 |
| MDELGKIAFGSIPPPQAEPNLIGDNFGIFVDDMFTAYEDPMAHWSFLFEDLFP | 151000 |
| GAVNLSSNERVVFSCRGEVLESKFGRSSKLSPRTFVVTTSKFYIVVQMLVSGQ | 37800 |
| ICFSPPLISCGGFFPSDLLPFLFHSFSFYFLTCWLPVYFLPPLFVACFFICLP | 60100 |
| MMRKLAYFYALPEVQNSKVLQTIVKKGFVPLLIALIFPRVTEDQLRVVIRFCQ | 50000 |
| ASSVRIIAIKYFLTIHRWLPIVFKRGFFSSLLNPVAQRQTELGLLILCMKLCC | 48800 |
| VSRLHAKIEYEEEEERFVLVVIGRNGAWVDGVWSGASSRVPLGERSQIQIASR | 65500 |
| MFYKLLIIYCFLFFRIYFLFHFFSYIYFFFFLFSISNFVISLPSNLFSHLLFF | 47000 |
| IHFFFFGGTYFFFFCQWGFGGFFFSFLTFIPFFSYIFHIFHYAVLWLWLWLWL | 59800 |
| RYPFILFPFYSLLSHFLLLLTEIALCLKYCLLLSLCSPILLFLLVFLLLAFCL | 47600 |
| CGLCALVYHSLRFQLQSNMDVLLFRYNGSYKMVVVAATTKHLLLEDIKIKLLC | 45700 |
| FMVLFFITLFSFLVLIPFPWSFVSRYVYSSMFMFCIFFSAFLRFHLLLLSFCR | 54900 |
| VPPRSLCFLPSFSILTYILLIFSHLAVCPRPGPPSSSPVSIVLLLFFLRPYLL | 67500 |
| IPHGKVGDIFLLFEFSYPIISTIIILFYYYYFYYLLSLHILYFFYYSRCWLLV | 42300 |
| YMEIVCEKQLLVVSKVNRGWLYMAITQADLVYWATLSLASHYRDSKSVALTYF | 62500 |
| HNQPVPKLLHITIYHLSTIPNDNLASFRDLLNHVHVYLLPLVSARPLFTLVTH | 78800 |
| GCVVSCKLVGLFTITLIGVAVLYDLWRIIDIRRGTTMAQFARHFVARALALIA | 21600 |

| Sequence | transcriptional activation domain activity |
| --- | --- |
| MLVALCTYMIFNYYFFNFLLLFIFLYFTSYIVLSSSYSLVFISLIINSDFLFL | 57500 |
| GLFLVFGFWYIGVCSYGFLGFSLSLGGVYIRFFLYYHYQRILRLISLPFPVWF | 59700 |
| SDDSSEASAIDSGDSSSQSSSDSDSEDAKKKTRRKTAKAKAKAKSKSKNSKKV | 24800 |
| GRHFLAGVLEGLPYVMPLFAPTVNSYKRLVENFWAPVTVSWGLEHRIASIRLI | 32600 |
| ESVRQHIVTETKNRVETYLAHCNPIVPHQRLTLLLARLLLRKLDFVTRLQWIL | 50300 |
| ITNFSHPVSWLGTISPLSSLISSSLSFLSEFFSLFPLFFSFFLLFSPSISSWF | 67500 |
| ALHHVAWWIIIFELFFTVGIIVALGLGGFGPHRGTVCRYLLYTTCSQACNSLY | 35200 |
| EQAAKKKTAAPAAAPKAEAAKAPEVKAEAAAPAPEPEKPAAGGKKKKLNPALL | 52300 |
| YTRCEVIYLKRSLPSYFGPSMLQFTILFILIVTNSIVLLGLFLLLCRTLWGLA | 19500 |
| KDATGDDAARARGGDKGGEREKAGGKGGRRGPKEKEKGKQKAKESKGAAGFAE | 55600 |
| YYGMYPQDISTLGVSPRTPTSRLIRSYMKTILSNPESRKIFYFLMLNMCYMLV | 58900 |
| MTRMLPLSFELFKFIVNLCLALVFTSWLFSWSKMLLILGLICVCRDFLSLVIV | 31700 |
| PILIPGGLGVVLLHLPASFTKIECNESGFHQFIKRRCRLLLGVEPGMKVVVLT | 60900 |
| VDFVKHLISCFSVVGEDNFACTLKGFGWMYLTHVYFFFNVFVALNLQLIILLS | 60000 |
| RKVGFILYVIMHMRINIVFAAFRLAKFNINPNSVYIKIINCVIKYLLKTMDYF | 44700 |
| EREERRRQERAKEEAEGGNRRGKKNKGEAGGGKRGRGKRPRRGRRKGQRARGG | 34400 |
| AIGISGYVLPCLYRLALLVLNTTPNQPLDALLSFSHYTLQNSALAHFLPLFVN | 53400 |
| MTTDNTQKPTISLVEKVDLVFRLLAIAPLRHAIHFTRSLFIAYWRGLPLRLHI | 70300 |
| MHTPFLFLPPCPSRTRLLLFFSLILFLLVLVPAPCHAQPWNLGTLFFIFWLAS | 52700 |
| PHHKWVVPTPFSSHAFHPVDGWLQSIPYHIFILVFPLHRVLYLVLFVLINFWT | 59200 |
| YLFLFYLTILVWFGLFYFIQFFFYLSFHFLFCFVLLLFFTFVFWGVFIFCFFF | 45500 |

| Sequence | transcriptional activation domain activity |
| --- | --- |
| TNPAAAVAAAVAAKKTDTEEETTPKEDKAEEAKPEEEKKEEKKEEKAAAKSRS | 33900 |
| MKILYCILCMLFFFLFLSFYIQKKILFSLTCVFTLPPLSLFLFFFLFIVQILC | 55700 |
| QEKEGGAKEAQPDADADAEAEGKAARQKARKAVVSAASDDEGDDEEEEEEEEG | 10000 |
| MYNTVLAWYCFIFAHVYSFLHCCFYYWFFLAFWLFGLLTYLSFVVGGVFFMPR | 53300 |
| CFLVLSCRWLLVLPALTYLATSVLYTYDITITVTGQTRSVRLPSSIACILNVA | 42200 |
| RHRRHRRSRSRDREGGRDRGRDGRRDERREERKVERRNEGRDEGRVEGRGRDA | 40000 |
| MDFFYIFNYLISYITNRLMILLYYFTHTHFLLFPLSLFYYYFSCSCFFLLFPP | 36500 |
| EHQCATIQLDFQLPQQFNLEYMTSEKAPAAKIEAAPKTETAPKAEAPAAAPAA | 42500 |
| VANILCLSTSLLACSMVFWSIPSWYYLVSHYQEWMPHVILPLYLLWWLFMMLV | 39200 |
| LFEIDQRLGLLVPRNGINTSLVILKVIAKLLEKASIYNHFTLGIVWLRKSILV | 49900 |
| RSRAEGGSSPGRGGSEDGAGAGKPGKERRDKSRGARAKQCGCKAVNQDKSCEC | 21900 |
| RGTQKREKRGKEKGEGGTWGRAEGEGKRGGKEKGRREEKRGKKKEAGGAGGRG | 23500 |
| IHILHGTLQTIIAHSRAPHFLHVPCMRLPLLLLLIPPLYFEYCLLLLSPFFFA | 51200 |
| MEFGSWGWKSIFFIFFSFRDFMVWHGGVSFFLPYINDFYIFVLIFYCFIYSAS | 59800 |
| SDGEESDAGAKERKRKKKRRAKDSESESSDEEEKRKKTKRSKSKSKRRSPSPS | 25700 |
| FSFFHPLHFLPWLLYPSPLISLFFLSFFILFSFFVFFFSCPFFLSLFHIFFPV | 33000 |
| PNWESLFGLMDFVRIRAEKLQWHLFLSLIRFMEAMIVRYMANYDRRTLHNSTE | 44300 |
| MTFLPFSLFAFLFRCLLFFLAIFRLRYALFLFLFFSFLYLYPFYLHILHIVAY | 52600 |
| KQYCVRPNSGRIEPGKDVEVQVLLQAMKEDPPLDAKCRDKFLVQSVAVTADKE | 24900 |
